{"source": "patent US20060172407A1", "about": "“Bacterial cell digestion” (priority 2002, published 2006)", "molecules": {"B1": {"name": "domain 3 of EF-Tu: Polypeptide containing solely domain 3 (amino acids 299 to 394) of E. coli EF-Tu, expressed intracellularly from an introduced gene segment (protein)", "chain": "IKPHTKFESEVYILSKDEGGRHTPFFKGYRPQFYFRTTDVTGTIELPEGVEMVMPGDNIKMVVTLIHPIAMDDGLRFAIREGGRTVGAGVVAKVLG"}}, "test_system": "E. coli", "assay": "Tests with E. coli: expression of the domain 3 of EF-Tu in cells, electron microscope pictures", "type": "cell-based, Escherichia coli", "description": "One especially advantageous procedure of the invention is as follows. The DNA segment of the EF-Tu gene of Escherichia coli that codes for the domain 3 is obtained and by means of molecular-genetic techniques is transferred into E. coli cells and expressed. In addition to this recombinant segment that contains solely the domain 3, but not domains 1 and 2 of EF-Tu, the cells as before have the native EF-Tu gene and can express it. The additionally synthesized domain 3 polypeptides, however, compete with the native EF-Tu proteins around the binding sites for the formation of the protofilaments. If a domain-3 polypeptide instead of a native EF-Tu protein is incorporated as a link, this leads to chain rupture as a result of the absence of the second binding site (the domain 2 is essential for chain formation) on the domain-3 polypeptide. […] As a result of the loss of integrity of the cytoskeleton, the cytoplasmic membrane of the cell loses it suspension. […] In this way, the cell wall that in the living bacteria cell is positioned and supported by the cytoplasmic membrane is destroyed (see FIG. 5). The loss of the cell wall and the cytoplasmic membrane means exposure of the contents of the cell so that the cell is lysed (cf. FIGS. 5 and 6). The cell contents can thus be recovered without further cell digestion.\nTests with E. coli, Electron microscope pictures, negative contrasting • a) Intact bacteria cells, containing their chromosome and in addition an empty vector (plasmid) that was used in continuing tests as a vector for introducing the domain-3 gene segment. These cells therefore represent controls. • b) Cells of a young culture. A plasmid that in expressible form contains the gene segment that codes for the domain 3 of EF-Tu had been introduced into these cells before the start of cultivation, in addition to its own native chromosome (that does contain the gene that codes intact EF-Tu). The effect of the expression of this “truncated” gene can be clearly seen: In addition to some cells that appear intact (they are recognizable as already weakened in their cell coating with a more exact analysis), the picture is determined by cell residues that indicate the original cell form, but have neither a wall nor CM. The wall and the CM have lost their suspension by destabilization of the cytoskeleton. […] The onetime cell form can no longer be detected; the cell residues form unorganized aggregations", "key": {"[1]": {"conditions": "ultrathin section, expressed in addition to the cell's own EF-Tu"}}, "data": [{"molecule": "EF-Tu: Full-length bacterial elongation factor EF-Tu introduced by genetic engineering and expressed in addition to the cell's own EF-Tu (control) [reference compound]", "values": [{"measurement": "state of the cells in electron microscope picture", "setting": "[1]", "result": "the cell is intact"}]}, {"molecule": "B1", "values": [{"measurement": "state of the cells in electron microscope picture", "setting": "negative contrasting, cells of a young culture, plasmid expression in addition to native EF-Tu", "result": "The cell contents are exposed"}, {"measurement": "state of the cells in electron microscope picture", "setting": "negative contrasting, old culture", "result": "End stage of the dissolution of the cells"}, {"measurement": "state of the cells in electron microscope picture", "setting": "[1]", "result": "End stage of the dissolution of the cells"}]}]}
